Measured values published in publication PMC4299515.

Tests used:
[1] = biological target: full-length HP1β (heterochromatin protein 1 beta) (UniProt P83917); assay: AUC; sedimentation velocity, c(s) distribution, 8–30 μM protein, physiological ionic strength; no larger complexes than the dimer up to 30 μM
[2] = biological target: full-length HP1β (heterochromatin protein 1 beta) (UniProt P83917); assay: AUC; sedimentation velocity at lower concentrations (two peaks in c(s)); KD from the relative molar fractions of monomer and dimer; dimer to monomers; physiological ionic strength
[3] = biological target: isolated chromoshadow-domain (CSD) of HP1β; assay: AUC; sedimentation velocity, c(s) distribution, 8–30 μM protein, physiological ionic strength; no larger complexes than the dimer up to 30 μM

full-length HP1β (heterochromatin protein 1 beta), P83917 1-185 (natural protein; other documents disagree on this pair), sequence (P83917 whole entry): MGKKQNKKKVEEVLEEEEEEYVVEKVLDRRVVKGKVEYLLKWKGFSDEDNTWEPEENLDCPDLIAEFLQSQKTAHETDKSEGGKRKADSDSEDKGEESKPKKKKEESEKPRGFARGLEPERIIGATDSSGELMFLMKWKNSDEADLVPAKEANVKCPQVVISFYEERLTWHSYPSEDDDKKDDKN
isolated chromoshadow-domain (CSD) of HP1β (domain or fragment), sequence (P83916 whole entry, the tested form may be a part): as the sequence (P83917 whole entry) above

stoichiometry N [1] | Kd [2] | stoichiometry N [3] | Substance
2 | 1000 to 2000 nM | – | full-length HP1β (heterochromatin protein 1 beta), P83917 1-185 (natural protein; other documents disagree on this pair)
– | – | 2 | isolated chromoshadow-domain (CSD) of HP1β (domain or fragment)
